Blank lines part the entries; values can stand above or below the molecule they belong to.
Legend:
BIN1 SH3 domain = target: T1, BIN1 SH3 domain (Homo sapiens, UniProt O00499); assay: Surface plasmon resonance (SPR) binding to immobilised BIN1 SH3 domain; conditions: triplicate, ligand BIN1 SH3 domain 50 μg/mL, analyte serial dilution 75-0.6 μM, dissociation time 120 seconds, 25° C., running buffer 1×PBS-P+, read-out: dissociation constant (KD)
T1 construct: 6x His with TEV cleavage site (N, cleaved yes); made in house; host or cells: E. coli BL21 (DE3), pET28a(+)
T1 sequence (O00499 513-593): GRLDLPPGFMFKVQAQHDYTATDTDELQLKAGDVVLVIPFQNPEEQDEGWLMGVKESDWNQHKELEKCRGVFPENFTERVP
Method: (§1) Next, the inventors determined the dissociation constant (KD) for the peptide and full-length 0N4R WT Tau by surface plasmon resonance (SPR). The experiment was run in triplicate with BIN1 SH3 domain 50 μg/mL as the ligand, and FL 0N4R WT Tau in serial dilution from 75-0.6 μM as the analyte. Flow rate—30 μL/minute, contact time—30 seconds, dissociation time—120 seconds, temperature—25° C., running buffer—1×PBS-P+. A dissociation constant of 1.136 μM was determined.
Then, the dissociation constants for nine compounds identified through the molecular docking analysis were assessed. […] Therefore, compound #5 is a candidate compound for further testing in Alzheimer's disease. Ligand-BIN1 SH3 domain 50 μg/mL. Analyte—compounds 1-2 (serial dilutions from 500-3.12 μM), #4 & 6-9 (250-3.12 μM) and #5 (dilutions from 100-3.12 μM). Flow rate—30 μL/minute, contact time—30 seconds, dissociation time—300 seconds, temperature—25° C., running buffer—1.05×PBS-P+ with 5% DMSO. Solvent correction for 5% DMSO was calculated and mathematically subtracted from each compound analysis.

full-length 0N4R WT Tau [1] = target: T2, full-length 0N4R WT Tau (UniProt P10636-6 2-383, limits assumed); assay: SPR, run in triplicate; BIN1 SH3 domain (50 µg/mL) as immobilised ligand, FL 0N4R WT Tau in serial dilution from 75-0.6 µM as analyte; 25° C., 1×PBS-P+
T2 construct: mature; also called FL 0N4R WT Tau
Method: as §1, with “buffer—1×PBS-P+.” for “buffer—1×PBS-P+. A dissociation constant of 1.136 μM was determined.”

full-length 0N4R WT Tau [2] = target: T2, full-length 0N4R WT Tau; assay: SPR, steady-state affinity fit (replicate 1 of 3); BIN1 SH3 domain as immobilised ligand, FL 0N4R WT Tau as analyte 0.6-75 µM, 25 °C, PBS-P+
Method: as §1, with “buffer—1×PBS-P+.” for “buffer—1×PBS-P+. A dissociation constant of 1.136 μM was determined.”

full-length 0N4R WT Tau [3] = target: T2, full-length 0N4R WT Tau; assay: SPR, steady-state affinity fit (replicate 2 of 3); BIN1 SH3 domain as immobilised ligand, FL 0N4R WT Tau as analyte 0.6-75 µM, 25 °C, PBS-P+
Method: as §1, with “buffer—1×PBS-P+.” for “buffer—1×PBS-P+. A dissociation constant of 1.136 μM was determined.”

full-length 0N4R WT Tau [4] = target: T2, full-length 0N4R WT Tau; assay: SPR, steady-state affinity fit (replicate 3 of 3); BIN1 SH3 domain as immobilised ligand, FL 0N4R WT Tau as analyte 0.6-75 µM, 25 °C, PBS-P+
Method: as §1, with “buffer—1×PBS-P+.” for “buffer—1×PBS-P+. A dissociation constant of 1.136 μM was determined.”

T2 sequence (P10636 other isoform, or with tags, fused parts or gaps limits assumed): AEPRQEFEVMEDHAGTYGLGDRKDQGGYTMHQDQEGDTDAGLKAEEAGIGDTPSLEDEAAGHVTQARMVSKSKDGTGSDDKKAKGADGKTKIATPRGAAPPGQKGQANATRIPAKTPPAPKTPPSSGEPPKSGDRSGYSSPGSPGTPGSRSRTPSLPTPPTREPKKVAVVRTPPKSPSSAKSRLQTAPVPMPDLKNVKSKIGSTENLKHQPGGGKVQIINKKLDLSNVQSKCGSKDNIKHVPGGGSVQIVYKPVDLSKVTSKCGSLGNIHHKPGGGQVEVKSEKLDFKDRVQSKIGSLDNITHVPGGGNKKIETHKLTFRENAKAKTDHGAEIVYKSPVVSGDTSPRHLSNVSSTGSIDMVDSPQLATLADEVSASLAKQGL

Kd (BIN1 SH3 domain): 1.14 µM
Molecule: FL 0N4R WT Tau: full-length 0N4R wild-type Tau protein used as analyte in SPR

Kd (full-length 0N4R WT Tau [1]): 1.14 µM
Kd (full-length 0N4R WT Tau [2]): 1.03 µM
Kd (full-length 0N4R WT Tau [3]): 1.3 µM
Kd (full-length 0N4R WT Tau [4]): 1.08 µM
B1: human BIN1 SH3 domain (untagged) (other)
chain: T1 sequence (O00499 513-593)
notes: also called native BIN1 SH3 domain; the peptide
